Experimental data taken from paper PMC9404054, “Efficient screening for 8-oxoguanine DNA glycosylase binding aptamers via capillary electrophoresis”.

Legend:
[1] = biological target: T1, 8-oxoguanine DNA glycosylase (OGG1) (UniProt O15527 1-345); assay: capillary electrophoresis (NECEEM); 0.2 uM aptamer, 5.0 uM OGG1, n=3; CE in fused-silica capillary (75 um i.d. x 50.2 cm, 40 cm effective); borate reagents listed; 15 min incubation stated for the selection; buffer composition, pH and temperature not in the material; conditions: protein: commercial; (library is FAM labelled)
[2] = biological target: T1, 8-oxoguanine DNA glycosylase (OGG1); assay: capillary electrophoresis (NECEEM); 0.2 uM aptamer, 5.0 uM OGG1, n=3; abstract gives range 1.71-2.64 uM for the top three candidates; CE in fused-silica capillary (75 um i.d. x 50.2 cm, 40 cm effective); borate reagents listed; 15 min incubation stated for the selection; buffer composition, pH and temperature not in the material; conditions: protein: commercial; (library is FAM labelled)

T1 sequence (O15527 whole entry, the tested form may be a part): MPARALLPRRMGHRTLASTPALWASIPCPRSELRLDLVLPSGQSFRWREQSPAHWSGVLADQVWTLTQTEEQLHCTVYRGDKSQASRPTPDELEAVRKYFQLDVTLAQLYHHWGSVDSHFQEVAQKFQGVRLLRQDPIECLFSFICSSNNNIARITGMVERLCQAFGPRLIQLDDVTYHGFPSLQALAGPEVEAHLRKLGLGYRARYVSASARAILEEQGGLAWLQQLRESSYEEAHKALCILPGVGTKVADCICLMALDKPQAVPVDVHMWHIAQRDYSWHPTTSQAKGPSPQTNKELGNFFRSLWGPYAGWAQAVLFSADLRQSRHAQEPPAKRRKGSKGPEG

B1: OGG1-Apt 1 (ssDNA)
DNA: AGCAGCACAGAGGTCAGATGGCCACATTAGTCTCACCACTACCTGCGTACCTACCGCCGCCCTATGCGTGCTACCGTGAA
[1]
  Kd: 1700 ± 100 nM

B2: OGG1-Apt 6 (ssDNA)
DNA: AGCAGCACAGAGGTCAGATGCCGATCGTTGTTCCCGATCAAGATGGGGAATCTCAGTCGCCCTATGCGTGCTACCGTGAA
[1]
  Kd: 1800 ± 100 nM

B3: OGG1-Apt 2 (ssDNA)
DNA: AGCAGCACAGAGGTCAGATGTTGATGGCAGGTATTGCTAGGTCTACATGGAACTTGTTAACCTATGCGTGCTACCGTGAA
[1]
  Kd: 2600 ± 200 nM

B4: OGG1-Apt 4 (ssDNA)
DNA: AGCAGCACAGAGGTCAGATGGCGAAGCGTACCGGCTACCCAGTGACAGTCGCCGTGGGTCCCTATGCGTGCTACCGTGAA
[2]
  Kd: 2800 ± 200 nM
